Laboratory results from the Human Domainome abundance scans (Beltran et al. 2025).
± gives the uncertainty stated by the source.

B1: Receptor-interacting serine/threonine-protein kinase 2, residues 438 to 518; numbered along this chain, O43353 (parent)
chain: QWIQSKREDIVNQMTEACLNQSLDALLSRDLIMKEDYELVSTKPTRTSKVRQLLDTTDIQGEEFAKVIVQKLKDNKQMGLQ
B2: Protein maelstrom homolog, residues 3 to 71; numbered along this chain, Q96JY0 (parent)
chain: NRKASRNAYYFFVQEKIPELRRRGLPVARVADAIPYCSSDWALLREEEKEKYAEMAREWRAAQGKDPGP

Variants of: B1
Assay: abundance fitness (aPCA) (normalised: wild type 0, dead -1); higher = more abundant; growth selection in yeast, the domain comes from the species named
Details: Homo sapiens

Abundance fitness, by site and new letter:
K6: F 0.095 ± 0.44
Q4: F -0.166 ± 0.15, G -0.685 ± 0.13, P -0.923 ± 0.35, M 0.279 ± 0.29, V -0.756 ± 0.34, T 0.458 ± 0.5, A -0.078 ± 0.12, S 0.09 ± 0.15, I 0.135 ± 0.39, R -0.045 ± 0.1
I3: T -0.745 ± 0.42, P -0.194 ± 0.24, K -0.975 ± 0.38, L -0.205 ± 0.091, S -0.767 ± 0.22, D -0.051 ± 0.34, F -0.771 ± 0.47, M -0.292 ± 0.17, G -0.87 ± 0.25
R7: Q -0.463 ± 0.13, I -0.838 ± 0.38, E -0.42 ± 0.13, F -0.027 ± 0.17, A -0.334 ± 0.081, C -1.04 ± 0.31, G -0.563 ± 0.079, P -0.956 ± 0.14, Y -0.501 ± 0.17, W -0.673 ± 0.12, L -0.545 ± 0.085, V -0.611 ± 0.085, S -0.419 ± 0.073, M -1.09 ± 0.42, K 0.032 ± 0.14
D9: C -0.341 ± 0.19, F -0.498 ± 0.28, H -0.336 ± 0.19, G -0.532 ± 0.092, E -0.317 ± 0.15, A -0.288 ± 0.095
Q1: L -0.399 ± 0.28, H -0.398 ± 0.4, R -0.389 ± 0.47
E8: M -0.272 ± 0.16, W -0.918 ± 0.12, K -0.319 ± 0.23, H -0.884 ± 0.28, G -0.29 ± 0.057, D 0.031 ± 0.24, I -0.768 ± 0.45, F -0.691 ± 0.32, Q -0.569 ± 0.11, L -0.507 ± 0.079, T -0.209 ± 0.077, C -0.994 ± 0.41, A -0.367 ± 0.076, V -0.301 ± 0.072, P -0.527 ± 0.066, S -0.276 ± 0.068, R -0.36 ± 0.055
S5: L -0.216 ± 0.15, F -0.636 ± 0.43, W -0.639 ± 0.46, D 0.224 ± 0.27, Q -0.088 ± 0.23, K -0.171 ± 0.27, T -0.315 ± 0.14, V -0.384 ± 0.16, H -0.824 ± 0.36, G -0.177 ± 0.24, P -0.623 ± 0.15, R -0.125 ± 0.16, E 0.372 ± 0.27
W2: D -0.232 ± 0.31, E -0.438 ± 0.11, G -0.546 ± 0.084, M -0.4 ± 0.12, K -0.435 ± 0.14, R -0.41 ± 0.088, I 0.069 ± 0.43, N -0.196 ± 0.2, L -0.45 ± 0.074, C -0.556 ± 0.18, Q -0.411 ± 0.14, T -0.609 ± 0.24, H -0.684 ± 0.24, V -0.632 ± 0.1

Variants of: B2
Assay: as above
Details: Homo sapiens

Abundance fitness of substitutions, site by site:
E58: V -0.256 ± 0.1, S -0.24 ± 0.097, G -0.082 ± 0.063, I -0.279 ± 0.14, M -0.594 ± 0.17, F -0.319 ± 0.19, Q -0.17 ± 0.1, P -0.521 ± 0.16, K -0.014 ± 0.1, R -0.189 ± 0.057, A -0.086 ± 0.071, W -0.523 ± 0.12, T -0.392 ± 0.11, L -0.165 ± 0.071, D -0.09 ± 0.26, Y -0.972 ± 0.39, C -0.245 ± 0.13, H 0.246 ± 0.18
K65: H -0.259 ± 0.11, E -0.082 ± 0.078, N -0.116 ± 0.14, Y -0.109 ± 0.17, R -0.037 ± 0.042, V -0.12 ± 0.065, L -0.175 ± 0.068, A -0.206 ± 0.071, T -0.26 ± 0.079, Q -0.084 ± 0.089, F -0.117 ± 0.1, P -0.134 ± 0.092, G -0.048 ± 0.046, S -0.154 ± 0.066, C 0.074 ± 0.13, M -0.497 ± 0.14
R57: E 0.021 ± 0.097, L 0.003 ± 0.073, T -0.054 ± 0.098, K 0.001 ± 0.13, N -0.135 ± 0.17, A 0.05 ± 0.078, Y -0.236 ± 0.23, W -0.378 ± 0.094, Q -0.104 ± 0.1, I -0.398 ± 0.42, V -0.093 ± 0.099, G -0.159 ± 0.068, S -0.034 ± 0.09, M -0.01 ± 0.11, C -0.089 ± 0.15, H 0.206 ± 0.14, D -0.072 ± 0.21, F -0.332 ± 0.23
G68: K -0.025 ± 0.11, D -0.083 ± 0.087, A -0.139 ± 0.1, M -0.048 ± 0.086, T -0.186 ± 0.15, W -0.128 ± 0.098, S -0.273 ± 0.098, N -0.459 ± 0.26, F -0.119 ± 0.14, C -0.12 ± 0.17, H 0.038 ± 0.18, E 0.014 ± 0.068, I -0.296 ± 0.15, R -0.079 ± 0.057, Y -0.646 ± 0.18, Q -0.064 ± 0.1, L -0.309 ± 0.06, V -0.376 ± 0.072
G64: P -0.022 ± 0.077, A 0.146 ± 0.034, Q 0.165 ± 0.073, N 0.214 ± 0.095, E 0.088 ± 0.06, C 0.082 ± 0.082, V 0.196 ± 0.046, S 0.035 ± 0.049, L -0.018 ± 0.054, K 0.048 ± 0.071, D 0.207 ± 0.091, Y 0.181 ± 0.12, M -0.008 ± 0.068, R 0.116 ± 0.047
R45: I -0.431 ± 0.23, D -0.219 ± 0.13, Q 0.027 ± 0.091, G -0.111 ± 0.056, P 0.147 ± 0.097, K -0.023 ± 0.083, M -0.057 ± 0.08, C 0.016 ± 0.11, W -0.511 ± 0.088, H -0.072 ± 0.11, F -0.502 ± 0.15, N 0.108 ± 0.12, L -0.114 ± 0.048, Y -0.428 ± 0.15, E -0.003 ± 0.07, V -0.151 ± 0.053, A -0.001 ± 0.061
E48: D 0.06 ± 0.2
L44: R -0.802 ± 0.091, V -0.156 ± 0.069, P -0.751 ± 0.14, Q -0.168 ± 0.15, Y -1.09 ± 0.25, S -0.205 ± 0.067, T -0.227 ± 0.051
A53: T -0.15 ± 0.1, D -0.082 ± 0.24, V -0.006 ± 0.062, Q -0.194 ± 0.11, G -0.106 ± 0.052, N -0.144 ± 0.21, P -0.589 ± 0.13, M -0.322 ± 0.1, E 0.13 ± 0.075, K -0.226 ± 0.11, S 0.082 ± 0.087, Y 0.265 ± 0.44, H 0.037 ± 0.18, W -0.097 ± 0.057, C 0.043 ± 0.1, R 0.035 ± 0.045, I -0.263 ± 0.22
E50: D -0.232 ± 0.16
A56: D -0.31 ± 0.097, R -0.523 ± 0.045, L -0.296 ± 0.057, H -0.087 ± 0.042, S -0.02 ± 0.036, V -0.268 ± 0.058, C 0.027 ± 0.084, P -0.651 ± 0.1, G -0.302 ± 0.045, F 0.124 ± 0.13, N -0.16 ± 0.13, E -0.101 ± 0.071, K -0.671 ± 0.12, Y 0.208 ± 0.14, I -0.539 ± 0.23, W -0.236 ± 0.05, Q -0.226 ± 0.078
Q63: V -0.089 ± 0.059, L -0.321 ± 0.051, G 0.126 ± 0.043, F -0.202 ± 0.16, D -0.121 ± 0.13, K -0.019 ± 0.071, S 0.091 ± 0.057, N 0.023 ± 0.083, A -0.018 ± 0.066, H -0.31 ± 0.13, E -0.046 ± 0.062, W -0.37 ± 0.091, P -0.08 ± 0.067, C -0.255 ± 0.13, Y -0.242 ± 0.16, R 0.054 ± 0.042
D66: C -0.241 ± 0.11, R -0.02 ± 0.061, W -0.155 ± 0.092, H 0.122 ± 0.097, T 0.173 ± 0.12, Y -0.095 ± 0.072, L 0.047 ± 0.049, V 0.018 ± 0.049, A -0.148 ± 0.071, M 0.051 ± 0.072, Q 0.07 ± 0.07, P -0.052 ± 0.17, E -0.003 ± 0.06, I 0.024 ± 0.094, S -0.042 ± 0.065, F -0.116 ± 0.073, K 0.171 ± 0.067
E54: C -0.161 ± 0.075, K 0.027 ± 0.076, G -0.049 ± 0.044, I 0.076 ± 0.095, Q -0.147 ± 0.076, L -0.13 ± 0.058, D 0.133 ± 0.082, N -0.125 ± 0.09, V -0.068 ± 0.054, F -0.396 ± 0.12, T 0.212 ± 0.073, W -0.299 ± 0.047, H -0.161 ± 0.092, A -0.123 ± 0.059, P -0.346 ± 0.14, Y -0.293 ± 0.065, S 0.107 ± 0.056
K51: P -0.453 ± 0.46, R -0.378 ± 0.43
P69: E 0.168 ± 0.31, S 0.126 ± 0.083, N -0.341 ± 0.38, K 0.411 ± 0.11, L 0.189 ± 0.13, Y 0.162 ± 0.36, H -0.049 ± 0.17, G 0.392 ± 0.19, I -0.556 ± 0.39, Q -0.281 ± 0.35, M -0.144 ± 0.14, V 0.013 ± 0.086, R 0.397 ± 0.18, C 0.071 ± 0.17, A -0.007 ± 0.091, W 0.11 ± 0.48, F 0.035 ± 0.17
P67: R 0.118 ± 0.047, M -0.12 ± 0.09, C -0.417 ± 0.18, V 0.091 ± 0.073, H 0.024 ± 0.11, K -0.069 ± 0.14, A -0.098 ± 0.069, N -0.105 ± 0.23, F -0.101 ± 0.083, S -0.067 ± 0.065, G 0.009 ± 0.048, T -0.155 ± 0.078, E -0.046 ± 0.084, L 0.022 ± 0.056, D -0.43 ± 0.18, W -0.263 ± 0.07
E46: M -0.134 ± 0.097, P 0.066 ± 0.1, L -0.139 ± 0.05, H -0.101 ± 0.18, I -0.315 ± 0.24, T -0.188 ± 0.071, G -0.031 ± 0.055, K 0.012 ± 0.11, C -0.046 ± 0.1, R -0.14 ± 0.045, F -0.215 ± 0.12, V -0.38 ± 0.077, N -0.09 ± 0.13, Y -0.339 ± 0.14, D -0.266 ± 0.13, A -0.23 ± 0.068
R60: T 0.322 ± 0.24
